Measurements from patent publication US20140107021A1 (priority 2010, published 2014).
Like-named read-outs stand apart in the source and are kept apart here. Bridge positions count the residues as written; N and C are the ends. Square brackets hold non-standard residues; d marks the D form. Side chains are listed from the residue outwards. Ends that are not written are not given here. Peptide text beside a SMILES is read from it. * marks the point of attachment. PEG40kDa = 40 kDa polyethylene glycol; Ac‑Cys = acetylated cysteine; Carboxymethyl = O=C(O)C*; CH2CH2COOH = O=C(O)CC*; Aib = CC(C)(N)C(=O)O

Columns and labels:
glucagon receptor [1] = biological target: T1, glucagon receptor (Homo sapiens, UniProt P47871); experiment: cell-based; conditions: for cAMP pA2: Table I
T1 sequence (P47871 26-477): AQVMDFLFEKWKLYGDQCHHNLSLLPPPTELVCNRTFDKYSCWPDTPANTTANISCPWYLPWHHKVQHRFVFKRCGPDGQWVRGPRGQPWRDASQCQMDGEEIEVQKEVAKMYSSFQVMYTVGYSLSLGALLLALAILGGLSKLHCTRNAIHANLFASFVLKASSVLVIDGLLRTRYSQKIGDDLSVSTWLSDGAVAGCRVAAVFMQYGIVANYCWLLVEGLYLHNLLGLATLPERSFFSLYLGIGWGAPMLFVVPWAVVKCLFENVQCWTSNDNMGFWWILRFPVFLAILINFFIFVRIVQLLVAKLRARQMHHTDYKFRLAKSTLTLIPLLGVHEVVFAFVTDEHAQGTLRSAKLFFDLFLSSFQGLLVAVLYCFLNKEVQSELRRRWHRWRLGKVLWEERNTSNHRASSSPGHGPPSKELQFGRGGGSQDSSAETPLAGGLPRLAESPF
Description: (§1) HEK293 cells co-transfected with the receptor and luciferase gene linked to a cAMP responsive element were employed for the bioassay.
(§2) All EC50s and IC50s are reported in the following examples in nM, unless indicated otherwise.

glucagon receptor [2] = biological target: T1, glucagon receptor; experiment: glucagon receptor binding; set-up: expressed in transfected cells; host or cells: HEK293
GLP-1 receptor = biological target: T2, GLP-1 receptor (Homo sapiens, UniProt P43220); experiment: cAMP induction at the GLP-1 receptor (agonist activity), firefly luciferase reporter assay in HEK293 cells; assay type: cell-based; conditions: Table 5; relative to standard
T2 construct: expressed in transfected cells; host or cells: HEK293
T2 sequence (P43220 24-463): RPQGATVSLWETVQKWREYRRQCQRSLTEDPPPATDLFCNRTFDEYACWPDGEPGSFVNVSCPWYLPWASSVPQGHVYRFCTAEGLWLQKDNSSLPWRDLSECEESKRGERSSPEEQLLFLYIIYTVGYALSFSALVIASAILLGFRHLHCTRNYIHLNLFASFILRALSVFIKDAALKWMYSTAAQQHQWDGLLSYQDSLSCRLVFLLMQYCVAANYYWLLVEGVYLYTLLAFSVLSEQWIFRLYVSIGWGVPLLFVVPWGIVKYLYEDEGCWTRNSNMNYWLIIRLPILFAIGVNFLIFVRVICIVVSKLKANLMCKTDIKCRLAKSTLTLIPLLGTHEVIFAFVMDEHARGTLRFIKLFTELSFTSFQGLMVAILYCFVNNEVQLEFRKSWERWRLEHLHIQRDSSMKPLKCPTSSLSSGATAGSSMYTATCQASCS
Description: as §1, §2

GIP receptor = biological target: T3, GIP receptor (Homo sapiens, UniProt P48546); experiment: cAMP induction at the GIP receptor (agonist activity), luciferase reporter assay in HEK293 cells; assay type: cell-based; conditions: Table 5; relative to standard
T3 construct: expressed in transfected cells; host or cells: HEK293
T3 sequence (P48546 22-466): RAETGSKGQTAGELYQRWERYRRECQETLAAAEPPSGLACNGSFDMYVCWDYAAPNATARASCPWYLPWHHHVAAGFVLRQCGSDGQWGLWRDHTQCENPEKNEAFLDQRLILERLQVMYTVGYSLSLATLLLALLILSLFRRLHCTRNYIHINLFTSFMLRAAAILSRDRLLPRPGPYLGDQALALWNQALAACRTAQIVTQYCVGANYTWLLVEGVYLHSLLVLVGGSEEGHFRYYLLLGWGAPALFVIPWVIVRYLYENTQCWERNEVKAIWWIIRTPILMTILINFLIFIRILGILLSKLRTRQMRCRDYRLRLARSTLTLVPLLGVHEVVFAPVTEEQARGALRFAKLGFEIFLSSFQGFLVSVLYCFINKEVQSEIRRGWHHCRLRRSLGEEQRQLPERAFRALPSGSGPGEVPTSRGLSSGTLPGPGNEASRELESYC
Description: as §1, §2

glucagon receptor [3] = biological target: T1, glucagon receptor; experiment: cAMP induction at the glucagon receptor (agonist activity), luciferase reporter assay in HEK293 cells; assay type: cell-based; set-up: expressed in transfected cells; host or cells: HEK293; conditions: Table 5; for EC50: read-out: GR EC50; for GR relative activity: relative to standard
Description: as §1, §2

[4] = Table G, average ±STD of at least three experiments, same values as receptor binding in Table I, read-out: IC50
[5] = Table E, read-out: Receptor Binding IC50

IC50 (glucagon receptor [2]; [4]) [nM]	Compound	GLP-1R relative activity (GLP-1 receptor) [%]	GIPR relative activity (GIP receptor)	EC50 (glucagon receptor [3]) [nM]	GR relative activity (glucagon receptor [3]) [%]	further results
163 ± 70.8	CSCC[C@H](NC(=O)[C@H](CC(C)C)NC(=O)[C@H](Cc1c[nH]c2ccccc12)NC(=O)[C@H](CCC(N)=O)NC(=O)[C@@H](NC(=O)[C@H](Cc1ccccc1)NC(=O)[C@H](CC(=O)O)NC(=O)[C@H](CCC(N)=O)NC(=O)[C@H](C)NC(=O)[C@H](CCCNC(=N)N)NC(=O)[C@H](CCCNC(=N)N)NC(=O)[C@H](CO)NC(=O)[C@H](CC(=O)O)NC(=O)[C@H](CC(C)C)NC(=O)[C@H](Cc1ccc(O)cc1)NC(=O)[C@H](CCCCN)NC(=O)[C@H](CO)NC(=O)[C@H](Cc1ccc(O)cc1)NC(=O)[C@H](CCCC(=O)O)NC(=O)[C@H](CO)NC(=O)[C@@H](NC(=O)[C@@H](N)Cc1ccccc1)[C@@H](C)O)C(C)C)C(=O)N[C@@H](CC(N)=O)C(=O)N[C@H](C(N)=O)[C@@H](C)O [(hGlu^9]Glucagon(aa6-29)-NH2] (HELM PEPTIDE1{F.T.S.[O=C(O)CCC[C@H](N[*:1])C(=O)[*:2]].Y.S.K.Y.L.D.S.R.R.A.Q.D.F.V.Q.W.L.M.N.T.[am]}$$$$V2.0; N-terminus assumed)	–	–	–	–	Kb (glucagon receptor [1]): 537 nM; cAMP pA2 (glucagon receptor [1]): 6.27 ± 0.11
107 ± 5.37	CSCC[C@H](NC(=O)[C@H](CC(C)C)NC(=O)[C@H](Cc1c[nH]c2ccccc12)NC(=O)[C@H](CCC(N)=O)NC(=O)[C@@H](NC(=O)[C@H](Cc1ccccc1)NC(=O)[C@H](CC(=O)O)NC(=O)[C@H](CCC(N)=O)NC(=O)[C@H](C)NC(=O)[C@H](CCCNC(=N)N)NC(=O)[C@H](CCCNC(=N)N)NC(=O)[C@H](CO)NC(=O)[C@H](CC(=O)O)NC(=O)[C@H](CC(C)C)NC(=O)[C@H](Cc1ccc(O)cc1)NC(=O)[C@H](CCCCN)NC(=O)[C@H](CO)NC(=O)[C@H](Cc1ccc(O)cc1)NC(=O)[C@H](CSCC(=O)O)NC(=O)[C@H](CO)NC(=O)[C@@H](NC(=O)[C@@H](N)Cc1ccccc1)[C@@H](C)O)C(C)C)C(=O)N[C@@H](CC(N)=O)C(=O)N[C@H](C(N)=O)[C@@H](C)O [[(CSA-1)^9]Glucagon(aa6-29)-NII2, [C^9(SCH2COOH)]Glucagon(aa6-29)-NH2] (H-FTSC(Carboxymethyl)YSKYLDSRRAQDFVQWLMNT-NH2; N-terminus assumed)	–	–	–	–	Kb (glucagon receptor [1]): 209 nM; cAMP pA2 (glucagon receptor [1]): 6.68 ± 1.05
146 ± 36.9	CSCC[C@H](NC(=O)[C@H](CC(C)C)NC(=O)[C@H](Cc1c[nH]c2ccccc12)NC(=O)[C@H](CCC(N)=O)NC(=O)[C@@H](NC(=O)[C@H](Cc1ccccc1)NC(=O)[C@H](CC(=O)O)NC(=O)[C@H](CCC(N)=O)NC(=O)[C@H](C)NC(=O)[C@H](CCCNC(=N)N)NC(=O)[C@H](CCCNC(=N)N)NC(=O)[C@H](CO)NC(=O)[C@H](CC(=O)O)NC(=O)[C@H](CC(C)C)NC(=O)[C@H](Cc1ccc(O)cc1)NC(=O)[C@H](CCCCN)NC(=O)[C@H](CO)NC(=O)[C@H](Cc1ccc(O)cc1)NC(=O)[C@H](CSCCC(=O)O)NC(=O)[C@H](CO)NC(=O)[C@@H](NC(=O)[C@@H](N)Cc1ccccc1)[C@@H](C)O)C(C)C)C(=O)N[C@@H](CC(N)=O)C(=O)N[C@H](C(N)=O)[C@@H](C)O [[(CSA-2)^9]Glucagon(aa6-29)-NH2, [C^9(SCH2CH2COOH)]Glucagon(aa6-29)-NH2] (H-FTSC(CH2CH2COOH)YSKYLDSRRAQDFVQWLMNT-NH2; N-terminus assumed)	–	–	–	–	Kb (glucagon receptor [1]): 229 nM; cAMP pA2 (glucagon receptor [1]): 6.64 ± 0.29
–	CC(C)C[C@H](NC(=O)[C@H](Cc1ccc(O)cc1)NC(=O)[C@H](CCCCN)NC(=O)[C@H](CO)NC(=O)[C@H](Cc1ccc(O)cc1)NC(=O)[C@H](CCS(=O)(=O)O)NC(=O)[C@H](CO)NC(=O)[C@@H](NC(=O)[C@H](Cc1ccccc1)NC(=O)[C@@H](NC(=O)CNC(=O)[C@H](CCC(N)=O)NC(=O)[C@@H](N)CO)[C@@H](C)O)[C@@H](C)O)C(=O)N[C@@H](CC(=O)O)C(=O)N[C@@H](CO)C(=O)N[C@@H](CCCNC(=N)N)C(=O)N[C@@H](CCCNC(=N)N)C(=O)N[C@@H](C)C(=O)N[C@@H](CCC(N)=O)C(=O)N[C@@H](CC(=O)O)C(=O)N[C@@H](Cc1ccccc1)C(=O)N[C@H](C(=O)N[C@@H](CCC(N)=O)C(=O)N[C@@H](Cc1ccccc1)C(=O)N[C@@H](CC(C)C)C(=O)N[C@@H](CC(C)C)C(=O)N[C@@H](CC(N)=O)C(=O)N[C@H](C(N)=O)[C@@H](C)O)C(C)C [[desIIis^1, hCys^9(SO3—), Phe^25, Leu^27]Glucagon-NH2] (HELM PEPTIDE1{S.Q.G.T.F.T.S.[O=C([C@H](CCS(=O)(=O)O)N[*:1])[*:2]].Y.S.K.Y.L.D.S.R.R.A.Q.D.F.V.Q.F.L.L.N.T.[am]}$$$$V2.0; N-terminus assumed)	–	–	–	–	IC50 (glucagon receptor [2]; [5]): 13.9 ± 0.37 nM
–	CSCC[C@H](NC(=O)[C@H](CC(C)C)NC(=O)[C@H](Cc1c[nH]c2ccccc12)NC(=O)[C@H](CCC(N)=O)NC(=O)[C@@H](NC(=O)[C@H](Cc1ccccc1)NC(=O)[C@H](CC(=O)O)NC(=O)[C@H](CCC(N)=O)NC(=O)[C@H](C)NC(=O)[C@H](CCCNC(=N)N)NC(=O)[C@H](CCCNC(=N)N)NC(=O)[C@H](CO)NC(=O)[C@H](CC(=O)O)NC(=O)[C@H](CC(C)C)NC(=O)[C@H](Cc1ccc(O)cc1)NC(=O)[C@H](CCCCN)NC(=O)[C@H](CO)NC(=O)[C@H](Cc1ccc(O)cc1)NC(=O)[C@H](CCS(=O)(=O)O)NC(=O)[C@H](CO)NC(=O)[C@@H](NC(=O)[C@H](Cc1ccccc1)NC(=O)[C@@H](NC(=O)CNC(=O)[C@H](CCC(N)=O)NC(=O)[C@@H](N)CO)[C@@H](C)O)[C@@H](C)O)C(C)C)C(=O)N[C@@H](CC(N)=O)C(=O)N[C@H](C(N)=O)[C@@H](C)O [[hCys^9(SO3H)]Glucagon(aa2-29)-NH2]	–	–	–	–	IC50 (glucagon receptor [2]; Table H, same values as receptor binding in Table I, read-out: IC50): 13.2 ± 1 nM
36.4 ± 8.69	H-LTFTSEYSKYLDSRRAQDFVQWLMNT-NH2 [[Leu^4, Glu^9]Glucagon(aa4-29)-NH2]	–	–	–	–	–
–	SQGTTSDYSKYLDSRRAQDFVQWLMNT-NH2 [[desHis^1, desPhe^6]Glucagon-NH2]	–	–	–	–	IC50 (glucagon receptor [2]; [5]): 130 ± 44.9 nM
–	mt-218: as mt-217 with Glu as the amino acid spacer; SEQ ID NO: 20 (Y[Aib]QGTFTSDYSIYLDEQAAKEFVK([Glu-Ac‑Cys-PEG40kDa])FLLAGGPSSGAPPPS-NH2; lactam 16-20)	7.40	0.13%	16.3	0.70	–
–	mt-219: as mt-217 with Arg as the amino acid spacer; SEQ ID NO: 21 (Y[Aib]QGTFTSDYSIYLDEQAAKEFVK([Arg-Ac‑Cys-PEG40kDa])FLLAGGPSSGAPPPS-NH2; lactam 16-20)	16.56	.31%	17.6	0.65	–
–	mt-220: as mt-217 with Phe as the amino acid spacer; SEQ ID NO: 22 (Y[Aib]QGTFTSDYSIYLDEQAAKEFVK([Phe-Ac‑Cys-PEG40kDa])FLLAGGPSSGAPPPS-NH2; lactam 16-20)	13.89	0.19%	9.67	1.18	–
–	mt-225: as mt-217 but modified Lys at position 40 and Asn at position 24; SEQ ID NO: 359 (Y[Aib]QGTFTSDYSIYLDEQAAKEFVNWLLAGGPSSGAPPPSK([Ala-Ac‑Cys-PEG40kDa])-NH2; lactam 16-20)	29.59	0.90%	2.71	1.99	–
–	mt-226: as mt-218 but modified Lys at position 40 and Asn at position 24; SEQ ID NO: 23 (Y[Aib]QGTFTSDYSIYLDEQAAKEFVNWLLAGGPSSGAPPPSK([Glu-Ac‑Cys-PEG40kDa])-NH2; lactam 16-20)	29.90	1.16%	3.46	1.56	–
–	mt-227: as mt-219 but modified Lys at position 40 and Asn at position 24; SEQ ID NO: 360 (Y[Aib]QGTFTSDYSIYLDEQAAKEFVNWLLAGGPSSGAPPPSK([Arg-Ac‑Cys-PEG40kDa])-NH2; lactam 16-20)	36.25	1.29%	4.24	1.27	–
–	mt-228: as mt-220 but modified Lys at position 40 and Asn at position 24; SEQ ID NO: 24 (Y[Aib]QGTFTSDYSIYLDEQAAKEFVNWLLAGGPSSGAPPPSK([Phe-Ac‑Cys-PEG40kDa])-NH2; lactam 16-20)	19.86	0.75%	5.36	1.01	–

Compound	IC50 (glucagon receptor [2]; [4]) [nM]	GLP-1R relative activity (GLP-1 receptor) [%]	GIPR relative activity (GIP receptor)	EC50 (glucagon receptor [3]) [nM]	GR relative activity (glucagon receptor [3]) [%]	further results
TSEYSKYLDSRRAQDFVQWLMNT-NH2 [[Glu^9]Glucagon(aa7-29)-NH2]	> 10000	–	–	–	–	–
